Changes are numbered by the printed parent chain. *1 amine or outer side, *2 acyl side, *3 side chain or, on linkers, in order; H or OH if unused. Where no end group is shown, it is not given here. Side-chain parts run from the residue outwards. [ ]: non-standard residue; d: D form. The star is where a group is joined. αMePhe(2-F) = C[C@](N)(Cc1ccccc1F)C(=O)O; γGlu = O=C(O)[C@H](CCC(=O)[*:2])N[*:1]; C14 diacid = O=C(O)CCCCCCCCCCCCC(=O)*; αMeY = C[C@](N)(Cc1ccc(O)cc1)C(=O)O; αMeL = CC(C)C[C@](C)(N)C(=O)O; Nle = CCCC[C@H](N)C(=O)O; Orn = NCCC[C@H](N)C(=O)O; AEEA = NCCOCCOCC(=O)O; Aib = CC(C)(N)C(=O)O
T1: human glucose-dependent insulinotropic polypeptide (GIP) receptor (human, UniProt P48546 22-466)
T1 sequence (looked up): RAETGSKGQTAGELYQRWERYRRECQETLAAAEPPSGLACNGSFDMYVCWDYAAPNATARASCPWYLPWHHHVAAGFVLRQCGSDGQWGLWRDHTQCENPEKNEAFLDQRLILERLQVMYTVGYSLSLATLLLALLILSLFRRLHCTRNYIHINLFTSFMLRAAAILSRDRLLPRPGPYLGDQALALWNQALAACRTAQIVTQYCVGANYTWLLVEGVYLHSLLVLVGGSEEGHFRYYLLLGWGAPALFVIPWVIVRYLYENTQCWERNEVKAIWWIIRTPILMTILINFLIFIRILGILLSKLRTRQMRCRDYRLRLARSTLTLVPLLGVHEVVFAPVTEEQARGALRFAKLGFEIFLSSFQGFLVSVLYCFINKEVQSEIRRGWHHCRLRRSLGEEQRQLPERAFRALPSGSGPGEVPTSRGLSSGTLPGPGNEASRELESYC

B1: Example 269 (peptide)
peptide: Y[Aib]EGT[αMePhe(2-F)]TSD[Nle]SI[αMeL]LD[Orn]IAQ[Aib]EFIK([AEEA-AEEA-γGlu-C14 diacid])[αMeY]LIK([AEEA-AEEA-γGlu-C14 diacid])GGPSSGAPPPS-NH2
modifications: N-terminus assumed
SMILES: CCCC[C@H](NC(=O)[C@H](CC(=O)O)NC(=O)[C@H](CO)NC(=O)[C@@H](NC(=O)[C@](C)(Cc1ccccc1F)NC(=O)[C@@H](NC(=O)CNC(=O)[C@H](CCC(=O)O)NC(=O)C(C)(C)NC(=O)[C@@H](N)Cc1ccc(O)cc1)[C@@H](C)O)[C@@H](C)O)C(=O)N[C@@H](CO)C(=O)N[C@H](C(=O)N[C@@](C)(CC(C)C)C(=O)N[C@@H](CC(C)C)C(=O)N[C@@H](CC(=O)O)C(=O)N[C@@H](CCCN)C(=O)N[C@H](C(=O)N[C@@H](C)C(=O)N[C@@H](CCC(N)=O)C(=O)NC(C)(C)C(=O)N[C@@H](CCC(=O)O)C(=O)N[C@@H](Cc1ccccc1)C(=O)N[C@H](C(=O)N[C@@H](CCCCNC(=O)COCCOCCNC(=O)COCCOCCNC(=O)CC[C@H](NC(=O)CCCCCCCCCCCCC(=O)O)C(=O)O)C(=O)N[C@@](C)(Cc1ccc(O)cc1)C(=O)N[C@@H](CC(C)C)C(=O)N[C@H](C(=O)N[C@@H](CCCCNC(=O)COCCOCCNC(=O)COCCOCCNC(=O)CC[C@H](NC(=O)CCCCCCCCCCCCC(=O)O)C(=O)O)C(=O)NCC(=O)NCC(=O)N1CCC[C@H]1C(=O)N[C@@H](CO)C(=O)N[C@@H](CO)C(=O)NCC(=O)N[C@@H](C)C(=O)N1CCC[C@H]1C(=O)N1CCC[C@H]1C(=O)N1CCC[C@H]1C(=O)N[C@@H](CO)C(N)=O)[C@@H](C)CC)[C@@H](C)CC)[C@@H](C)CC)[C@@H](C)CC
B2: Example 255 (peptide)
peptide: YXEGTXTSDXSIXLDXKAQXKFIXXLIEGGPSSGAPPPS
modifications: Aib2, αMeF(2F)6, 2Nal10, αMeL13, Orn16, K17(Z), Aib20, K21(Z), D-Glu24, αMeY25, C-terminal NH2; Z = AEEA2-CO-(CH2)12-CO2H
B3: Example 263 (peptide)
peptide: B2 peptide with K17I, E28K
modifications: Aib2, αMeF(2F)6, OMeY10, αMeL13, Orn16, Aib20, K21(Z), D-Glu24, αMeY25, K28(Z), C-terminal NH2; Z = AEEA2-(γ-Glu)-CO-(CH2)12-CO2H
B4: Example 272 (peptide)
peptide: B2 peptide
modifications: Aib2, αMeF(2F)6, hTyr10, αMeL13, Orn16, K17(Z), Aib20, K21(Z), D-Glu24, αMeY25, C-terminal NH2; Z = AEEA2-CO-(CH2)12-CO2H
B5: Example 262 (peptide)
peptide: B2 peptide with K17I, K21E, X24K, E28K
modifications: Aib2, αMeF(2F)6, OMeY10, αMeL13, Orn16, Aib20, K24(Z), αMeY25, K28(Z), C-terminal NH2; Z = AEEA2-(γ-Glu)-CO-(CH2)12-CO2H
B6: Example 270 (peptide)
peptide: B2 peptide with K17I, K21E, X24K, E28K
modifications: Aib2, αMeF(2F)6, hTyr10, αMeL13, Orn16, Aib20, K24(Z), αMeY25, K28(Z), C-terminal NH2; Z = AEEA2-(γ-Glu)-CO-(CH2)12-CO2H
B7: Example 275 (peptide)
peptide: B2 peptide with K17I, E28K
modifications: Aib2, αMeF(2F)6, 4Pal10, αMeL13, Orn16, Aib20, K21(Z), D-Glu24, αMeY25, K28(Z), C-terminal NH2; Z = AEEA2-(γ-Glu)-(10-(4-carboxyphenoxy)decanoyl)
B8: Example 274 (peptide)
peptide: B2 peptide with K17I, K21E, X24K, E28K
modifications: Aib2, αMeF(2F)6, 4Pal10, αMeL13, Orn16, Aib20, K24(Z), αMeY25, K28(Z), C-terminal NH2; Z = AEEA2-(γ-Glu)-(10-(4-carboxyphenoxy)decanoyl)
B9: Example 277 (peptide)
peptide: B2 peptide
modifications: Aib2, αMeF(2F)6, OMeY10, αMeL13, Orn16, K17(Z), Aib20, K21(Z), D-Glu24, αMeY25, C-terminal NH2; Z = AEEA2-(γ-Glu)-(10-(4-carboxyphenoxy)decanoyl)
B10: Example 266 (peptide)
peptide: B2 peptide with K21E, E28K
modifications: Aib2, αMeF(2F)6, OMeY10, αMeL13, Orn16, K17(Z), Aib20, D-Glu24, αMeY25, K28(Z), C-terminal NH2; Z = AEEA2-CO-(CH2)12-CO2H
B11: Example 280 (peptide)
peptide: B2 peptide with K17I, E28K
modifications: Aib2, αMeF(2F)6, OMeY10, αMeL13, Orn16, Aib20, K21(Z), D-Glu24, αMeY25, K28(Z), C-terminal NH2; Z = AEEA2-(γ-Glu)-(10-(4-carboxyphenoxy)decanoyl)
B12: Example 265 (peptide)
peptide: B2 peptide
modifications: Aib2, αMeF(2F)6, OMeY10, αMeL13, Orn16, K17(Z), Aib20, K21(Z), D-Glu24, αMeY25, C-terminal NH2; Z = AEEA2-CO-(CH2)12-CO2H
B13: Example 260 (peptide)
peptide: B2 peptide with K21E, E28K
modifications: Aib2, αMeF(2F)6, OMeY10, αMeL13, Orn16, K17(Z), Aib20, D-Glu24, αMeY25, K28(Z), C-terminal NH2; Z = AEEA2-(γ-Glu)-CO-(CH2)12-CO2H
B14: Example 256 (peptide)
peptide: B2 peptide with K21E, E28K
modifications: Aib2, αMeF(2F)6, 2Nal10, αMeL13, Orn16, K17(Z), Aib20, D-Glu24, αMeY25, K28(Z), C-terminal NH2; Z = AEEA2-CO-(CH2)12-CO2H
B15: Example 271 (peptide)
peptide: B2 peptide
modifications: Aib2, αMeF(2F)6, Nle10, αMeL13, Orn16, K17(Z), Aib20, K21(Z), D-Glu24, αMeY25, C-terminal NH2; Z = AEEA2-CO-(CH2)12-CO2H
B16: Example 279 (peptide)
peptide: B2 peptide with K17I, K21E, X24K, E28K
modifications: Aib2, αMeF(2F)6, OMeY10, αMeL13, Orn16, Aib20, K24(Z), αMeY25, K28(Z), C-terminal NH2; Z = AEEA2-(γ-Glu)-(10-(4-carboxyphenoxy)decanoyl)
B17: Example 259 (peptide)
peptide: B2 peptide
modifications: Aib2, αMeF(2F)6, OMeY10, αMeL13, Orn16, K17(Z), Aib20, K21(Z), D-Glu24, αMeY25, C-terminal NH2; Z = AEEA2-(γ-Glu)-CO-(CH2)12-CO2H
B18: Example 278 (peptide)
peptide: B2 peptide with K21E, E28K
modifications: Aib2, αMeF(2F)6, OMeY10, αMeL13, Orn16, K17(Z), Aib20, D-Glu24, αMeY25, K28(Z), C-terminal NH2; Z = AEEA2-(γ-Glu)-(10-(4-carboxyphenoxy)decanoyl)
B19: Example 257 (peptide)
peptide: YXEGTXTSDXSIXLDXKAQXEFIXXLIEGGPSSGAPPPSK
modifications: Aib2, αMeF(2F)6, 2Nal10, αMeL13, Orn16, K17(Z), Aib20, D-Glu24, αMeY25, K40(Z), C-terminal NH2; Z = AEEA2-CO-(CH2)12-CO2H
B20: Example 264 (peptide)
peptide: B19 peptide with K17I, E21K
modifications: Aib2, αMeF(2F)6, OMeY10, αMeL13, Orn16, Aib20, K21(Z), D-Glu24, αMeY25, K40(Z), C-terminal NH2; Z = AEEA2-(γ-Glu)-CO-(CH2)12-CO2H
B21: Example 267 (peptide)
peptide: B19 peptide
modifications: Aib2, αMeF(2F)6, OMeY10, αMeL13, Orn16, K17(Z), Aib20, D-Glu24, αMeY25, K40(Z), C-terminal NH2; Z = AEEA2-CO-(CH2)12-CO2H
B22: Example 273 (peptide)
peptide: B19 peptide
modifications: Aib2, αMeF(2F)6, 4Pal10, αMeL13, Orn16, K17(Z), Aib20, D-Glu24, αMeY25, K40(Z), C-terminal NH2; Z = AEEA2-(γ-Glu)-(10-(4-carboxyphenoxy)decanoyl)
B23: Example 261 (peptide)
peptide: B19 peptide
modifications: Aib2, αMeF(2F)6, OMeY10, αMeL13, Orn16, K17(Z), Aib20, D-Glu24, αMeY25, K40(Z), C-terminal NH2; Z = AEEA2-(γ-Glu)-CO-(CH2)12-CO2H
B24: Example 268 (peptide)
peptide: B19 peptide with K17I, E21K
modifications: Aib2, αMeF(2F)6, OMeY10, αMeL13, Orn16, Aib20, K21(Z), D-Glu24, αMeY25, K40(Z), C-terminal NH2; Z = AEEA2-CO-(CH2)12-CO2H
B25: Example 258 (peptide)
peptide: B19 peptide with K17I, E21K
modifications: Aib2, αMeF(2F)6, 2Nal10, αMeL13, Orn16, Aib20, K21(Z), D-Glu24, αMeY25, K40(Z), C-terminal NH2; Z = AEEA2-CO-(CH2)12-CO2H
B26: Example 276 (peptide)
peptide: B19 peptide with K17I, E21K
modifications: Aib2, αMeF(2F)6, 4Pal10, αMeL13, Orn16, Aib20, K21(Z), D-Glu24, αMeY25, K40(Z), C-terminal NH2; Z = AEEA2-(γ-Glu)-(10-(4-carboxyphenoxy)decanoyl)

target: T1, human glucose-dependent insulinotropic …; assay: cell-based or functional assay

Binder	cAMP EC50 [nM]	cAMP Emax [%]
B1	0.0335	
B2	0.0213	
B3	0.0214	88.6
B4	0.0264	
B5	0.0327	
B6	0.0567	
B7	0.0152	
B8	0.0226	
B9	0.0176	
B10	0.0136	
B11	0.0229	
B12	0.0145	
B13	0.0239	
B14	0.0175	
B15	0.0186	
B16	0.0305	
B17	0.0198	
B18	0.0173	
B19	0.148	
B20	0.0208	114
B21	0.0162	
B22	0.0166	
B23	0.025	
B24	0.0265	
B25	0.0473	90.3
B26	0.0134	

target: human glucagon-like peptide-1 (GLP-1) receptor (human, UniProt P43220 24-463); assay: cell-based or functional assay

Binder	cAMP EC50 [nM]	cAMP Emax [%]
B1	1.72	
B2	0.357	
B3	0.294	
B4	0.388	
B5	0.472	
B6	0.551	
B7	0.737	
B8	0.406	
B9	0.225	
B10	0.282	90.5
B11	0.346	
B12	0.262	
B13	0.547	
B14	0.249	
B15	0.494	
B16	0.406	
B17	0.362	
B18	0.29	
B19	2.03	82
B20	0.413	
B21	0.271	
B22	2.08	
B23	0.531	
B24	0.613	
B25	0.653	
B26	0.49	

target: human glucagon receptor (human, UniProt P47871 26-477); assay: cell-based or functional assay

Binder	cAMP EC50 [nM]
B1	> 9950
B2	> 9950
B3	> 9950
B4	> 9950
B5	> 9950
B6	> 9950
B7	> 9950
B8	> 9950
B9	> 9950
B10	> 9950
B11	> 9950
B12	> 9950
B13	> 9950
B14	> 9950
B15	> 9950
B16	> 9950
B17	> 9950
B18	> 9950
B19	> 9950
B20	> 9950
B21	> 9950
B22	> 9950
B23	> 9950
B24	> 9950
B25	> 9950
B26	> 9950

From patent publication US20230265151A1, “GIP/GLP1 CO-AGONIST COMPOUNDS” (priority 2020, published 2023)
